According to patent publication US7241737B2, “Urotensin-II agonists and antagonists” (priority 2000, dated 2007):
Entries after “also recorded” stand apart in the source; their conditions may differ. Bridge positions count the residues as written; N and C are the ends. Ends that are not written are not given here.

Columns and labels:
U-II receptors = target: T1, U-II receptors (Rattus norvegicus, UniProt P49684); assay: Binding to U-II receptors (rat aorta tissue)
T1 construct: from tissue; host or cells: rat thoracic aorta (circular strips / rings)
T1 sequence (P49684 1-386): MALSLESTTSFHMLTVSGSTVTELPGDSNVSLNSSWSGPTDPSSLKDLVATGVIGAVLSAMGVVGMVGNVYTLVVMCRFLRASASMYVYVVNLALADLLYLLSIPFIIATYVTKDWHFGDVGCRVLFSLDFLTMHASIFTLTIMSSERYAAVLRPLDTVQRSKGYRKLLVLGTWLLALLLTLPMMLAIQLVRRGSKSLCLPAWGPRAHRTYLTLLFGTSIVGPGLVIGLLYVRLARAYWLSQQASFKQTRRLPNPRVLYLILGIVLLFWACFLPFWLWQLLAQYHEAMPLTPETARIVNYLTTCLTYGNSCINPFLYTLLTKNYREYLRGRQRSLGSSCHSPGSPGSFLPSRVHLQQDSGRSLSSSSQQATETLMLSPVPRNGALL

rat aorta contraction = assay: Peptide-induced contraction of rat aorta rings (agonist activity)
Protocol: Male Sprague-Dawley rats (250-350 g), which had been quarantined for 5-7 days prior to the experiments, were sacrificed by decapitation (experiments were approved by the Advisory Committee For Animal Resources, Tulane University School of Medicine). The thoracic aorta was dissected, freed from connective tissue, and cut into rings of about 1.5 mm in width. The rings were suspended in a 15 ml organ bath containing high potassium Kreb's solution (9.15 g/L potassium chloride, 2.1 g/L sodium bicarbonate, 1.0 g/L glucose, 0.16 g/L potassium phosphate monobasic, 0.14 g/L magnesium sulfate (anhydr.), and 0.22 g/L calcium chloride (dihydr.))
Optimal tension was applied (0.2 g) to the tissues and the bath medium was maintained at 37° C. and bubbled with a mixture of 95% O2/5% CO2. […] Changes in arterial smooth muscle tension were recorded isometrically using a force-displacement transducer (Radnoti), and a AcqKnowledge ACK100 Version 3.2 (BIOPAC Systems, Inc., Santa Barbara, Calif.)
In siliconized glass tubes, peptides were dissolved in dionized water at a concentration of 1 μg/1 μL (stock solution) and then diluted 1:10 with sterile BSA-saline solution (0.1% BSA, fraction V, Sigma, St. Louis in 0.9% NaCl). […] Peptide-induced changes in tension of the aorta rings were recorded by force-displacement transducers and processed by the computer system BIOPAC Inc., as described above. […]

## Asp-c[Cys-Phe-Trp-Lys-Tyr-Cys]-Val-OH (DCFWKYCV-OH; disulfide 2-7 (inferred))
U-II receptors
  potency in binding to rat aorta tissue relative to full human and fish U-II: greater potency than the full human and fish U-II sequences
Rat aorta contraction
  potency in inducing rat aorta contraction relative to full human and fish U-II: greater potency than the full human and fish U-II sequences; also recorded: more potent than the full human and fish sequences
